Assays:
[1] = molecular target: the molecule itself; assay: aggregates isolated by centrifugation + limited proteolysis
sedimentation assay = molecular target: the molecule itself; assay: sedimentation assay

Protein	binding result [1]	binding result (sedimentation assay)
MATLEKLMKAFESLKSFQQQQQQQQQQQQQQQQQQQQPPPPPPPPPPKK [htt^NTQ20P10K2 (huntingtin N-terminal fragment peptide)]	binds	–
KKQQQQQQQQQQQQQQQQQQQQQQQKK [K2Q23K2]	–	binds
